Source: patent US20070010428A1, “Inhibitors of signal transduction and activator of transcription 3” (priority 2004, published 2007)
Values belong to the binder of their own block, whether it stands above or below them. [ ]: non-standard residue; d: D form. pY = N[C@@H](Cc1ccc(OP(=O)(O)O)cc1)C(=O)O

Legend:
[1] = biological target: Stat3 (as in the EMSA of Table 1), P40763; experiment: EMSA: inhibition of Stat3 dimerization and DNA binding, average of two determinations
[2] = biological target: full length Stat3, P40763; experiment: fluorescence polarization, full length Stat3 titrated into the FP probe
Chain of full length Stat3, P40763 (P40763 whole entry): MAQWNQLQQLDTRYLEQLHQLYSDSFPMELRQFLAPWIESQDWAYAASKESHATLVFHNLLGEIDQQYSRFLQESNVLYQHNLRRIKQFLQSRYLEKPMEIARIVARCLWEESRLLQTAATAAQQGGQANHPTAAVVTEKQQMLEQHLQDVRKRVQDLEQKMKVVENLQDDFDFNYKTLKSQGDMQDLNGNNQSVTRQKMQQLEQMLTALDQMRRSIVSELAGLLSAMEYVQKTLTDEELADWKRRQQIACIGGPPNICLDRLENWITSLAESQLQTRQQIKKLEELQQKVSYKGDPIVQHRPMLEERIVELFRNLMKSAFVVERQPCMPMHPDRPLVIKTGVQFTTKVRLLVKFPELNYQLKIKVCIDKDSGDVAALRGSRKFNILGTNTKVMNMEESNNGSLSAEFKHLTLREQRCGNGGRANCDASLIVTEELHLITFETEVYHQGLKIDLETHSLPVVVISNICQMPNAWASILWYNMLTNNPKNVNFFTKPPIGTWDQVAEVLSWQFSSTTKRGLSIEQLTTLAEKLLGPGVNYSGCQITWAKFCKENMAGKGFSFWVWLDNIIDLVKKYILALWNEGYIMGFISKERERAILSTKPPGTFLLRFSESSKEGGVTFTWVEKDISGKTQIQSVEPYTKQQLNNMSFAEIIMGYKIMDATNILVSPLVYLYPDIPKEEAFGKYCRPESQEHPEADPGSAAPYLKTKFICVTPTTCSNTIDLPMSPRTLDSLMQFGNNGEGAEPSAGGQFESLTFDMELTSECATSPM

Chain of Stat3 (as in the EMSA of Table 1), P40763 (P40763 whole entry): as above

IC50 [1]: 150 µM
B1: Ac-Y(p)HNQPL-NH2 (EGFR Tyr 1086 hexapeptide) (peptide)
chain: YHNQPL
modifications: not checked

IC50 [1]: 30 µM
B2: Ac-Y(p)INQSV-NH2 (EGFR Tyr 1068 hexapeptide) (peptide)
chain: YINQSV
modifications: not checked

IC50 [1]: 20 µM
B3: Ac-pTyr-Leu-Lys-Thr-Lys-Phe-NH2 (peptide)
chain: Ac-[pY]LKTKF-NH2
SMILES: CC(=O)N[C@@H](Cc1ccc(OP(=O)(O)O)cc1)C(=O)N[C@@H](CC(C)C)C(=O)N[C@@H](CCCCN)C(=O)N[C@H](C(=O)N[C@@H](CCCCN)C(=O)N[C@@H](Cc1ccccc1)C(N)=O)[C@@H](C)O

Kd [2]: 0.05 µM
B4: fluorescein-5-carboxyl-Ala-pTyr-Leu-Pro-Gln-Thr-Val-NH2 (peptide)
chain: {fluorescein‑5‑carboxyl}-A[pY]LPQTV-NH2
